Test results: patent US20240116985A1 (published 2024)
One block for each binder: values may come before it. Starred links: 1 amine or outer side, 2 acyl side, 3 side chain; linkers in the order of their positions; H or OH if unused. Positions of bridges follow the written chain, without caps; N, C: chain ends. Non-standard residues stand in square brackets, D forms with d. Primed or numbered codes have the meaning given here. B5(16) = 2-amino-2-(pent-4-en-1-yl)hept-6-enoic acid = 2,2-bis(4-pentenyl)glycine (stitching residue), C=CCCCC(CCCC=C)(N[*:1])C(=O)[*:2]; B5(4) = 2,2-bis(4-pentenyl)glycine = 2-amino-2-(pent-4-en-1-yl)hept-6-enoic acid (stitching residue), C=CCCCC(CCCC=C)(N[*:1])C(=O)[*:2]; B5(5) = 2,2-bis(4-pentenyl)glycine, 2-amino-2-(pent-4-en-1-yl)hept-6-enoic acid (stitching residue), C=CCCCC(CCCC=C)(N[*:1])C(=O)[*:2]; PyrS2 = (S)-3-amino-1-((pent-4-en-1-yloxy)carbonyl)pyrrolidine-3-carboxylic acid, C=CCCCOC(=O)N1CC[C@@](N[*:1])(C(=O)[*:2])C1; Phe(2-Cl) = N[C@@H](Cc1ccccc1Cl)C(=O)O; Bta = N[C@@H](Cc1csc2ccccc12)C(=O)O; αAllylPro = C=CC[C@@]1(C(=O)O)CCCN1; tBuAla = CC(C)(C)C[C@H](N)C(=O)O; 3Thi = N[C@@H](Cc1ccsc1)C(=O)O; Cha = N[C@@H](CC1CCCCC1)C(=O)O; Cit = NC(=O)NCCC[C@H](N)C(=O)O; S8 = C=CCCCCCC[C@](C)(N)C(=O)O

Key:
B-cat-Halo [1] = molecular target: B-cat-Halo (UniProt P35222 1-781); test: cell-based or functional assay
B-cat-Halo [2] = molecular target: T1, B-cat-Halo (UniProt P35222 1-781); test: cell-based or functional assay; remark: listed apart in the source
T1 sequence (looked up): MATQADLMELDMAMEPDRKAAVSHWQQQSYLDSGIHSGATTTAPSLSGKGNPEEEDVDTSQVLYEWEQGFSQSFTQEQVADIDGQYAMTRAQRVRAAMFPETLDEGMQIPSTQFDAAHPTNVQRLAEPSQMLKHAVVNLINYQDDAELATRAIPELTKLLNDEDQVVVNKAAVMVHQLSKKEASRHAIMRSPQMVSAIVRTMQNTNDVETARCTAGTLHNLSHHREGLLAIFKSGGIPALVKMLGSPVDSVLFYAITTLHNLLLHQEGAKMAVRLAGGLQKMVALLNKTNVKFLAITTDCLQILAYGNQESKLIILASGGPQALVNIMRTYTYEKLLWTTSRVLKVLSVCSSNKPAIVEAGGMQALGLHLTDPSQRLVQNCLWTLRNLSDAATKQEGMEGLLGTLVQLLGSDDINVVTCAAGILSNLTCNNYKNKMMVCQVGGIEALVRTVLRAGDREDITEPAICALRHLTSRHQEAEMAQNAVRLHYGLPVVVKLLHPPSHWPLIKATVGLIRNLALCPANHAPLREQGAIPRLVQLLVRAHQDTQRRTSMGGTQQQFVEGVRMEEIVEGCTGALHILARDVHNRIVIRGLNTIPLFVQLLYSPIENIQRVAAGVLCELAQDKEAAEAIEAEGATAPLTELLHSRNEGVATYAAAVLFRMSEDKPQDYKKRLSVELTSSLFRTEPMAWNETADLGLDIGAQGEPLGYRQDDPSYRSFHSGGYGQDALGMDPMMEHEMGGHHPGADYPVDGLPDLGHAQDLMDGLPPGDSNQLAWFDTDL

[3] = molecular target: T2, B-cat-Halo (beta-catenin HaloTag fusion expressed in HEK293 cells) (UniProt P35222 1-781); test: cell-based or functional assay
T2 sequence (looked up): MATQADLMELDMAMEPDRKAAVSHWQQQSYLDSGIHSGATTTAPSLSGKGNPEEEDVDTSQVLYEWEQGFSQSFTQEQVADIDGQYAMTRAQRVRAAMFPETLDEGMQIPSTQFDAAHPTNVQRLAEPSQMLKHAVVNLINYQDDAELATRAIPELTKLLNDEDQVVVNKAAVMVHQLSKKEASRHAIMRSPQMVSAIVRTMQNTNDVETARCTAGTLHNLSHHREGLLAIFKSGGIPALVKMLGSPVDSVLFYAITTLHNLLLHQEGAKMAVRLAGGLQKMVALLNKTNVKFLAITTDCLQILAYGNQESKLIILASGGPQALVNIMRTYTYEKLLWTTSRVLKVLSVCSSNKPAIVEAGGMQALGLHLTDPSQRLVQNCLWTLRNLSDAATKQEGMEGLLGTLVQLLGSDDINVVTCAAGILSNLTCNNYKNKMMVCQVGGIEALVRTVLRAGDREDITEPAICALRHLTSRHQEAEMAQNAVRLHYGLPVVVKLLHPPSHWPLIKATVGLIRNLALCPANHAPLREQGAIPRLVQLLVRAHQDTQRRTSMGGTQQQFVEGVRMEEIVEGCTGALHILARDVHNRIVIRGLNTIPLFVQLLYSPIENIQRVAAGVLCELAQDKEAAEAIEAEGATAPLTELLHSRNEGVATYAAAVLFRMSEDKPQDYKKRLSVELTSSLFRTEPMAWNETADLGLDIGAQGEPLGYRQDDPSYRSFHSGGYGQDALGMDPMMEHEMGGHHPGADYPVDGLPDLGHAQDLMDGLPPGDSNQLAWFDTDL

[4] = molecular target: T3, full-length beta-Catenin (Uniprot ID P35222) (Homo sapiens (Human), UniProt P35222 1-781); test: fluorescence polarization competition; full-length beta-catenin, competitor 5FAM-TCF4(10-53) probe
T3 construct: The FP protocol says full-length beta-Catenin (Uniprot ID P35222); also called bCat; B-Catenin
T3 sequence: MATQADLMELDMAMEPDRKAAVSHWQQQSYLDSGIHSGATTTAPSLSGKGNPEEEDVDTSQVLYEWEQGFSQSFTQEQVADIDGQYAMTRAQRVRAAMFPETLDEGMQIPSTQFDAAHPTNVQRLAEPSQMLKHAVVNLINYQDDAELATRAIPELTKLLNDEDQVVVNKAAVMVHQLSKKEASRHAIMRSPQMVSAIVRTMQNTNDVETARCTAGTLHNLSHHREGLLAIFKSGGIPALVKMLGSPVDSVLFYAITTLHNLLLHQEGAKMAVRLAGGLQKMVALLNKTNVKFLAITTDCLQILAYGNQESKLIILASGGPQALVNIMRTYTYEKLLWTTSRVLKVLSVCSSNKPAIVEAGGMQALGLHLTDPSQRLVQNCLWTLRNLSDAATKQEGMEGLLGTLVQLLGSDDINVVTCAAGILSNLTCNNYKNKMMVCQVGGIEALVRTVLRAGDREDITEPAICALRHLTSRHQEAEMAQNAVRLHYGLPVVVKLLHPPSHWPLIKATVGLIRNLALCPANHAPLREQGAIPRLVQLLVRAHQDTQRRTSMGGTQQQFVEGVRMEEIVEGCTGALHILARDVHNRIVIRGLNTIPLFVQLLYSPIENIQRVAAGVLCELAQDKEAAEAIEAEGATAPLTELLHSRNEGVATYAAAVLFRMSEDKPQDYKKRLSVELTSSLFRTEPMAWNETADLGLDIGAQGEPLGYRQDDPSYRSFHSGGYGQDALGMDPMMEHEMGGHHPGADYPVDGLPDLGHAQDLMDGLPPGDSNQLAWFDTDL
Summary of the method: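 Data fitted to 1:1 binding model with hill slope from duplicate reads taken after 60 minutes at 20° C. in the dark.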

[5] = molecular target: T4, B-cat-Halo (beta-catenin HaloTag NanoBRET construct expressed in HEK293 cells) (UniProt P35222 1-781); test: cell-based or functional assay
T4 sequence (looked up): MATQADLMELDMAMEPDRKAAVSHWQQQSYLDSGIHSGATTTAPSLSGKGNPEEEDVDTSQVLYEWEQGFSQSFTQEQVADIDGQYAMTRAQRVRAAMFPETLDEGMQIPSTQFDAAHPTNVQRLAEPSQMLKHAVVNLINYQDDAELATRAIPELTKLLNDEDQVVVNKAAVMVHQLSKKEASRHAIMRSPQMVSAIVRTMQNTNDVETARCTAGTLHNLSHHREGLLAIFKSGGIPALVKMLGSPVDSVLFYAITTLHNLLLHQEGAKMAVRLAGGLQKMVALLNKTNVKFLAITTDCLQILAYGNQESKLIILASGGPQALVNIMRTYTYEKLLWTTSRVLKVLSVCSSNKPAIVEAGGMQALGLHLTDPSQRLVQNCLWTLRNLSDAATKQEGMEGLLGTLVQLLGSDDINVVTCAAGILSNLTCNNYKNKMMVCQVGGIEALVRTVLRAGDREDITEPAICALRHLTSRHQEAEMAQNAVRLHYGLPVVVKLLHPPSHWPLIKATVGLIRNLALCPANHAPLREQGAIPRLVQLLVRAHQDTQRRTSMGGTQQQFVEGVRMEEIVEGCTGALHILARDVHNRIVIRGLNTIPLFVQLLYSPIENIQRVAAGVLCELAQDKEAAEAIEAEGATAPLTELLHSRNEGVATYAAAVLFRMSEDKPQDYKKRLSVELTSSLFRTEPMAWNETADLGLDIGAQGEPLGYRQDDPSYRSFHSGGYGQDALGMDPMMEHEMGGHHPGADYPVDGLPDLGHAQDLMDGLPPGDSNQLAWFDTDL

[6] = molecular target: T5, beta-catenin in DLD1 TCF/LEF luciferase reporter cells (UniProt P35222 1-781); test: cell-based or functional assay
T5 sequence (looked up): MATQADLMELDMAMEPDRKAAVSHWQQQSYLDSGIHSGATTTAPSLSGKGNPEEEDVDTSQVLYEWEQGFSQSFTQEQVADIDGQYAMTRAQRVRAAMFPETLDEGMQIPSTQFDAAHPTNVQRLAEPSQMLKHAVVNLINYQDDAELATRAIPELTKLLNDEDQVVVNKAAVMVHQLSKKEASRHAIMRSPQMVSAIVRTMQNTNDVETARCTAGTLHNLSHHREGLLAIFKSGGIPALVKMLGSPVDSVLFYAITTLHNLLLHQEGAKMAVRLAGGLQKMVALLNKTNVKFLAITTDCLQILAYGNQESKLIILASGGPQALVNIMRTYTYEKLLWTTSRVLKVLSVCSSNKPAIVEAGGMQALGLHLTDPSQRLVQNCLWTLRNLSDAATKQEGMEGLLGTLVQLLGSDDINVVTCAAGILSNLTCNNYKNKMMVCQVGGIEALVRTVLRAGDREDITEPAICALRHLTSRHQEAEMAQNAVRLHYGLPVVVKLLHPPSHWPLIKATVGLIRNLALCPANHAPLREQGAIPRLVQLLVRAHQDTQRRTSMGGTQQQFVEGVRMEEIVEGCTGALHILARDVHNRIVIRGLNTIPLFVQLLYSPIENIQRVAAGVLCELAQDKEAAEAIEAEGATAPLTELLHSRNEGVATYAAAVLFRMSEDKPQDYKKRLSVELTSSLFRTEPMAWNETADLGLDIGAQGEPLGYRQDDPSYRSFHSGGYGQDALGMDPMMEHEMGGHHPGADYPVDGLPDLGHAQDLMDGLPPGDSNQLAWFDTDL

B1: I-629 (peptide)
peptide: Ac-[αAllylPro]DL[B5(16)]DEAAF[Cit][S8]F[Bta]-NH2
modifications: staple 1-4, 4-11; not fully specified; printed as Ac-PL3-Asp-Leu-B5-Asp-Glu-Ala-Ala-Phe-Cit-S8-Phe-BztA-NH2
NanoBRET Abs IC50 (B-cat-Halo [2]): 30 µM

Binder: Ac-[αAllylPro]DF[B5(4)]DDAAFS[PyrS2][Phe(2-Cl)][Bta]S-NH2 (staple 1-4, 4-11) [I-1051]
EC50 [4]: 0.014 µM
NanoBRET Abs IC50 [5]: > 20 µM
DLD1 reporter assay Abs IC50 [6]: > 20 µM

The remaining lines, values ahead:

NanoBRET % inh @ 10 uM (B-cat-Halo [1]): 44.8%
Binder: Ac-[αAllylPro]D[tBuAla][B5(5)]DDAAFN[S8][3Thi][Bta]Q-NH2 (staple 1-4, 4-11) [I-679]

NanoBRET IC50 [3]: 5.8 µM
Binder: Ac-[αAllylPro]D[Cha][B5(16)]DEAAFN[S8]F[Bta]Q-NH2 (staple 1-4, 4-11; also: later-eluting staple isomer composition) [I-620]
